The assay concerns the target low-molecular-weight fibrinogen fraction I-9 isolated from plasma (human) (UniProt P02671). In words: co-purification.

Data on one substance can be found in paper PMC2871011.

“latent TGF-β1 (TGF-β1 with its latency-associated protein) (from UniProt P01137 30-278) (complex)” returned a fold less latent TGF-β than in fraction I-2 of 8 fold.
